Data on two molecules can be found in PMC3585277, “The C-Terminal Region Mesd Peptide Mimics Full-Length Mesd and Acts as an Inhibitor of Wnt/β-Catenin Signaling in Cancer Cells” (PLoS ONE, 2013).

Data set [1] relates to PC-3 cells. The experiment in a line: BrdU proliferation ELISA, PC-3 cells. It counts as cell-based, human. The conditions noted are these: PC-3, peptide 2 µM, 7 days in 2% FBS then 2 days in 10% FBS; n = 6. How it is done: (§1) BrdU incorporation into proliferating cells was analyzed by a cell proliferation ELISA BrdU kit (colorimetric, Roche) according to the manufacturer's instructions.

The test system of data set [2] is HS578T cells. The experiment in a line: BrdU proliferation ELISA, HS578T cells. It counts as cell-based, human. The following applies: peptide 2 µM, 7 days in 2% FBS then 2 days in 10% FBS, n = 6. The method, then: as §1
A general note: An ELISA detects its analyte on a solid surface through an enzyme-linked reagent.

Data set [3] relates to MDA-MB-231 tumor. The following applies: cited from earlier work.
In data set [4] the test system is Wnt/β-catenin signaling. The experiment in a line: TOPFlash luciferase reporter assay, LRP5-transfected HEK293 cells. The format is cell-based, human. The following applies: Wnt3A CM 5%, Rspo1 40 ng/ml, mMesd 2 µM, peptide at indicated concentrations, 24 h, normalized to β-galactosidase. The method, then: (§2) Cells were plated into 24-well plates. After overnight culture, the cells were transiently transfected with the TOPFlash or Super8XTOPFlash luciferase construct, β-galactosidase-expressing vector, and pcDNA3.1C-Myc-hLRP5, pCS-Myc-hLRP6 or control vector. After 24 h incubation, cells were treated with Mesd, Mesd peptide, Rspo1 and Wnt3A CM. Cells were then lysed 24 h later and both luciferase and β-galactosidase activities were determined. The luciferase activity was normalized to the β-galactosidase activity.
On the technique in general: In a reporter assay the amount or activity of a reporter protein is the signal.

Data set [5] concerns Wnt/β-catenin signaling. The experiment in a line: TOPFlash luciferase reporter assay, LRP6-transfected HEK293 cells. It counts as cell-based, human. The following applies: Wnt3A CM 5%, Rspo1 40 ng/ml, mMesd 2 µM, peptide at indicated concentrations, 24 h, normalized to β-galactosidase. How it is done:
as §2

Data set [6] has as its system LRP6 phosphorylation. The experiment in a line: Western blot of phosphorylated LRP6 in C2C12 cells. The format is cell-based, mouse. The following applies: C2C12, Wnt3A CM 5%, 6 h; mMesd 0.5 µM, peptide at indicated concentrations. The method, then:
(§3) Cells in 6-well plates were lysed in 0.5 ml of lysis buffer (phosphate-buffered saline containing 1% Triton X-100 and 1 mM PMSF) at 4°C for 10 min. Equal quantities of protein were subjected to SDS-PAGE under reducing conditions. Following transfer to immobilon-P transfer membrane, successive incubations with anti-HA, anti-Wnt10b, anti-β-catenin, anti-OPG, anti-phosphorylated-LRP6, anti-LRP6, anti-Axin2, anti-Cyclin D1 or anti-actin, and horseradish peroxidase-conjugated secondary antibody were carried out for 60–120 min at room temperature. The immunoreactive proteins were then detected using the ECL system. Films showing immunoreactive bands were scanned by Kodak Digital Science DC120 Zoom Digital Camera.

The subject of data set [7] is OPG expression. Description: Western blot of OPG expression in C2C12 cells. The format is cell-based, mouse. The conditions noted are these: 48 h, mMesd 0.5 µM. How it is done:
as §3
(A western blot detects proteins with antibodies after separation by electrophoresis.)

In data set [8] the test system is Wnt/β-catenin signaling. The experiment in a line: Super8XTOPFlash luciferase reporter assay, PC-3 cells. The format is cell-based, human. The conditions noted are these: 24 h treatment. The method, then: as §2
Data set [9] relates to Wnt/β-catenin signaling. The experiment in a line: Super8XTOPFlash luciferase reporter assay, HS578T cells. The format is cell-based, human. The conditions noted are these: 24 h treatment. How it is done: as §2
Data set [10] deals with PC-3 cells. The experiment in a line: Cell proliferation assay (trypan blue exclusion), PC-3 cells. The format is cell-based, human. The following applies: PC-3, RPMI-1640 2% FBS, 10 days; mMesd 2 µM, hMesd (160–197) 4 µM, control peptide 4 µM; n = 3. How it is done:
(§4) Cells were seeded into 6-well plates at a density of 10000 cells/well. RPMI-1640 or DMEM medium containing 2% FBS was used as assay media. After 16 h incubation, the cells were treated with Mesd or its peptide for 10 days. Media were changed every other day. At the end of the experiment, cells were harvested and counted using the trypan blue exclusion assay.

For data set [11], the system named is HS578T cells. The experiment in a line: Cell proliferation assay (trypan blue exclusion), HS578T cells. It counts as cell-based, human. The following applies: DMEM 2% FBS, 10 days, mMesd 2 µM, hMesd (160–197) 4 µM, control peptide 4 µM, n = 3. The method, then: as §4
In data set [12] the test system is HS578T cells. Description: Cell viability, Cell Titer Glo Assay, HS578T cells. It counts as cell-based, human. How it is done: (§5) Cell viability was measured in 96-well plates by the Cell Titer Glo Assay (Promega), which is a luminescent assay that is an indicator of live cells as a function of metabolic activity and ATP content.
Data set [13] relates to PC-3 cells. Description: Cell viability, Cell Titer Glo Assay, PC-3 cells. The conditions noted are these: Mesd 2 µM or hMesd (160–197) 2 µM with Adriamycin 0.5 µM, 2 days after pre-treatment. The format is cell-based, human. How it is done: as §5
Data set [14] has as its system PC-3 cells. The following applies: cited from earlier work. From the text: (§6) Treatment of prostate cancer cells with Wnt3A CM or purified recombinant Wnt ...
Data set [15] has as its system PC-3 tumor. The conditions noted are these: cited from earlier work.
Text: as §6

For data set [16], the system named is Wnt/β-catenin signaling. The following applies: cited from earlier work.
Text: as §6

With “Mesd C-terminal region peptide: generic wording; in Figure 7B it is hMesd (160–197); in cited work (ref 13) the peptide is not specified (KGGGSKEKNKTKQDKGKKKKEGDLKSRSSKEENRAGNK)”, the BrdU incorporation result in data set [1] and in data set [2] was “decreased BrdU incorporation” each time. In addition, the MDA-MB-231 tumor growth result in [3] is reported as “suppressed”.

B1: Mesd protein: recombinant mouse Mesd protein, full-length; binds mature LRP5 and LRP6, universal antagonist of LRP5/6 modulators (protein)
chain: ADTPGEATPPPRKKKDIRDYNDADMARLLEQWEKDDDIEEGDLPEHKRPSAPIDFSKLDPGKPESILKMTKKGKTLMMFVTVSGNPTEKETEEITSLWQGSLFNANYDVQRFIVGSDRAIFMLRDGSYAWEIKDFLVSQDRCAEVTLEGQMYPGKGGGSKEKNKTKPEKAKKKEGDPKPRASKEDNRAGSRREDL
modifications: 125I (IODO-GEN method) on the radioligand; unlabeled when used as competitor
With B1, the “TOPFlash activity induced by LRP5, LRP5 plus Wnt3A, LRP5 plus Rspo1” value in [4] was “blocked”. In addition, the “TOPFlash activity induced by LRP6, LRP6 plus Wnt3A, LRP6 plus Rspo1” value in data set [5] is listed as “blocked”. In addition, the “Wnt3A-induced endogenous LRP6 phosphorylation” value in data set [6] was “able to suppress”. Also, the “OPG expression induced by Rspo1 plus Wnt3A” value in data set [7] (C2C12, Rspo1 20 ng/ml, Wnt3A CM 2%, mMesd (155–191) 2 µM) is “repressed”. For the same molecule, in [7] (C2C12, Wnt3A CM 5%, peptide at indicated concentrations), the “Wnt3A-induced OPG expression” value is listed as “able to suppress”. Besides, the “Wnt reporter luciferase activity” value is “significantly repressed” in data set [8] (PC-3, endogenous signaling, indicated concentrations) and “significantly repressed” in [9] (HS578T, endogenous signaling, indicated concentrations). Also, the “Wnt reporter luciferase activity induced by Wnt1” value in data set [8] (PC-3 transfected with Wnt1 plasmid) and in [9] (HS578T transfected with Wnt1 plasmid) was “significantly repress” in each case. Also, the cell proliferation entry in data set [10] and in [11] was “displayed inhibitory effect” each time. In addition, the Adriamycin-induced cytotoxicity result in [12] (Mesd 2 µM or hMesd (160–197) 2 µM with Adriamycin 0.5 µM, 2 days after pre-treatment) was “potentiate”; in [13], “potentiate”. Moreover, the “inhibition of cell viability” value in [12] (single agent: Mesd protein 2 µM or Adriamycin 0.5 µM, Mesd 4 days pre-treatment, then 2 days, n = 4) is on record as 25%. Moreover, the “PC-3 cell proliferation in vitro” value in data set [14] is reported as “suppressed”. The “PC-3 tumor growth in vivo” value in [15] is reported as “suppressed”. In data set [16], the “Wnt/β-catenin signaling in prostate cancer PC-3 cells” value was “markedly inhibited”. Further, the MDA-MB-231 tumor growth result in [3] is “suppressed”.
